Results published in the RNAGym collection of RNA variant scans (doi:10.7554/elife.80360).

B1: Hairpin Ribozyme (parent)
chain: GUCCUCUUUCACGUGCGCGUGAAAGAGAGAAGUGAACCAGAGAAACACACGUUGUGGUAUAUUACCUGGUA

Variants of: B1
Experiment: self-cleavage, relative activity (ratio to wild type); higher = more cleavage; co-transcriptional

Variant | self-cleavage
G21C U67G | 0.246
G21C U67C | 0.18
G21C C48G | 0.184
G21C C48U | 0.098
G21C U53C | 0.953
U20C A36G | 1
G21C U62G | 0.216
G21U U67A | 0.088
A22C A44U | 0.221
U20A C46U | 0.183
G21C A44U | 0.0331
G21U A47G | 0.208
U20A A71G | 0.89
U20G G42C | 0.206
U20G G42U | 0.245
U20C U53A | 0.861
U20C U53G | 0.708
G21U G34A | 1.01
U20G G40C | 0.188
U20G U67A | 0.241
U20G U67C | 0.186
G21C C46A | 0.0884
G21C C46U | 0.116
U20A G40A | 0.242

Variant | self-cleavage
G21U C50U | 0.376
G21U C50G | 0.328
U20C G32C | 0.0574
G21U G42A | 0.158
G21U G42U | 0.285
G21A G68A | 0.151
G21C A35U | 0.751
G21U A22U | 0.809
U20A C37A | 0.218
G21U A59U | 0.147
G21U A59G | 0.0937
G21U A59C | 0.148
G21C G40C | 0.0941
G21C G40U | 0.17
U20A G42C | 0.306
G21U A30G | 0.149
G21U A30U | 0.142
A22C A59U | 0.104
A22C A59C | 0.0825
A22C A59G | 0.25
G21U U60C | 1.08
U20G U33A | 0.158
U20G U33G | 0.11
G21A C50U | 0.371

Variant | self-cleavage
G21U A44G | 0.0823
G21U A44C | 0.117
U20C C50G | 0.262
U20C C50U | 0.476
G21C A23C | 0.422
U20G U52G | 0.772
U20G G34C | 1.14
U20G G34A | 1.19
U20C A30C | 0.217
G21U A61C | 0.237
U20A C38A | 0.168
U20C U60C | 0.724
U20C U60A | 1.15
G21C G32C | 0.175
G21A C66U | 0.447
U20A A23U | 0.785
U20A A23G | 0.783
U20G G27C | 0.165
G21A A61G | 0.116
G21A A61U | 0.18
U20C A43U | 0.125
G21U U53A | 0.836
U20G A49U | 0.148
U20G A61G | 0.257

Variant | self-cleavage
U20G A61C | 0.11
G21A U52G | 0.784
U20G A64G | 0.511
U20G A31U | 0.0664
U20G A31C | 0.164
G21C A61C | 0.151
G21U U63G | 0.248
G21U U63C | 0.122
G21U G27U | 0.253
U20C A23G | 1
G21C A31G | 0.275
U20G U58C | 0.826
G21C U33A | 0.133
G21U A24C | 0.481
U20C A64U | 0.152
U20A G54C | 0.362
U20A G54U | 0.547
G21C C38A | 0.18
G21U C37A | 0.267
U20C C38A | 0.152
G21U U62A | 0.151
G21A A71G | 0.854
G21A A71C | 1.23
U20C U67C | 0.2

Variant | self-cleavage
G21U U58C | 0.84
G21U U58G | 0.585
G21A A36C | 0.605
G21A A36U | 0.503
U20A A41C | 1.28
U20A A41U | 1.16
U20A G21C | 0.691
G21U G68A | 0.237
G21U G68U | 0.32
G21A A64U | 0.178
G21A A64G | 0.418
U20G G32U | 0.162
U20G G32C | 0.105
U20G A28U | 0.643
U20G C48A | 0.203
U20C A28G | 1.17
U20C A28U | 0.393
U20C A28C | 0.374
G21A A47U | 0.162
U20A A49G | 0.437
G21A U53A | 0.824
G21A U53C | 0.739
G21C A64U | 0.0998
G21C A64C | 0.154

Variant | self-cleavage
G21U A28U | 0.688
G21A C46A | 0.149
U20A U70C | 0.663
G21C G54U | 0.511
G21C G54A | 0.392
U20A A36G | 0.858
U20C C65A | 1
U20C C65U | 0.284
G19U U53C | 0.952
G19U U53G | 0.772
G19U U53A | 0.971
G21U A43G | 0.282
G21U A43U | 0.129
U20G A44U | 0.0389
U20A A24C | 0.81
U20G A59C | 0.313
G21U G29C | 0.224
U20C A71C | 1.28
U20C A71U | 0.79
U20G G25C | 0.643
U20C G56U | 0.215
U20C G56C | 0.216
U20G A22C | 0.816
U20C U63C | 0.184

Variant | self-cleavage
A22C A26C | 0.528
G21U A71G | 0.805
U20G A30G | 0.148
U20G A30U | 0.137
G21C A30G | 0.22
U20G U62C | 0.188
G21C G34U | 1.12
G21C G34C | 0.992
G21U C38A | 0.184
A22C A49U | 0.204
G21C G68A | 0.321
G21C G68C | 0.155
G21U A39C | 0.448
G21U A39G | 0.293
G21C U58A | 0.577
G21C U58C | 0.77
U20C A49C | 0.172
G21A A24U | 0.513
G21C A45C | 0.276
G21C A45G | 0.192
G21C A45U | 0.154
G21C G42U | 0.379
A22C A41G | 0.704
